Data reported in PMC10246530.

Columns and labels:
[1] = biological target: T1, SARS-CoV-2 nucleocapsid NTD (WT) (SARS-CoV-2 (reference genome …, UniProt P0DTC9 44-180)); experiment: ITC; low-salt; settings: protein: recombinant; tags: cleaved tag; one artificial N-terminal Gly left; hairpin with 3' ss extension
[2] = biological target: T1, SARS-CoV-2 nucleocapsid NTD (WT); experiment: NMR; SL4ext-like; settings: protein: recombinant; tags: cleaved tag; one artificial N-terminal Gly left
[3] = biological target: T1, SARS-CoV-2 nucleocapsid NTD (WT); experiment: EMSA; settings: protein: recombinant; tags: cleaved tag; one artificial N-terminal Gly left; label: 5'-32P in EMSA; branched stem-loops
[4] = biological target: T1, SARS-CoV-2 nucleocapsid NTD (WT); experiment: EMSA; 1 mM Mg2+, yeast tRNA; apparent; settings: protein: recombinant, tags: cleaved tag, one artificial N-terminal Gly left, label: 5'-32P in EMSA
[5] = biological target: T1, SARS-CoV-2 nucleocapsid NTD (WT); experiment: NMR; SL4ext-like; stability confirmed by aSEC; settings: protein: recombinant, tags: cleaved tag, one artificial N-terminal Gly left
[6] = biological target: T1, SARS-CoV-2 nucleocapsid NTD (WT); experiment: NMR; intermediate exchange; settings: protein: recombinant; tags: cleaved tag; one artificial N-terminal Gly left; labile hairpin, Tm 36.5 C
[7] = biological target: T2, SARS-CoV-2 nucleocapsid NTD (WT) (SARS-CoV-2 (reference genome …, UniProt P0DTC9 44-180)); experiment: ITC; settings: protein: recombinant; tags: cleaved tag; one artificial N-terminal Gly left; label: 5'-32P in EMSA; hairpin
[8] = biological target: T2, SARS-CoV-2 nucleocapsid NTD (WT); experiment: ITC; low-salt; NTD titrated to RNA; settings: protein: recombinant; tags: cleaved tag; one artificial N-terminal Gly left; label: 5'-32P in EMSA; hairpin

## GGUUUAUACCUUCCCAGGUAACAAACCAACCAACUUUC (structured_RNA) [SL1_extSL1]
[1]
  Kd: 87 µM

## GGAUGAAGAUUUUCAAGAAAACUGGAACACUAA (structured_RNA) [P2]
[2]
  binding result: binds

B1: SL5 (structured_RNA)
RNA: GGUCGUUGACAGGACACGAGUAACUCGUCUAUCUUCUGCAGGCUGCUUACGGUUUCGUCCGUGUUGCAGCCGAUCAUCAGCACAUCUAGGUUUCGUCCGGGUGUGACCGAAAGGUAAGAUGGAGAGCCUUGUCCCUGGUUUCAACGAGAA
[3]
  binding result: binds

## GGCUUUCGAUCUCUUGUAGAUCUGUUCUCUAAACGAACUUUAA (structured_RNA) [SL2+3]
[4]; two stem-loops
  apparent K (half saturation): ~10 µM

B2: SL4ext (SL4_extSL4) (structured_RNA)
RNA: GGUCUGUGUGGCUGUCACUCGGCUGCAUGCUUAGUGCACUCACGCAGUAUAAUUAAUAACUAAUUACUG
[4]; 15N-U/G for RNA-observed NMR, hairpin with 3' labile extension
  apparent K (half saturation): ~5 µM

## GCGUGGCAACCGGGUGUUGCUAUGCCUAAUCUUUACAAAAUGCAAAGA (structured_RNA) [P3]
[5]; tandem stem-loops
  binding result: binds

## GCCUAAUCUUUACAAAAUGCAAAGA (structured_RNA) [P3_B]
[5]; labile hairpin
  binding result: binds

## GGAUAAUUAAUAACUAAUUACU (ssRNA) [Ext]
[6]
  binding result: binds

## GGGUGUGGCUGUCACUCGGCUGCAUGCUUAGUGCACUCACGCCC (structured_RNA) [SL4]
[7]
  Kd: 53 µM
[8]
  Kd: 64 µM
